Consider one substance from publication PMC6743330.

This assay concerns the target PtmU3 (Streptomyces platensis CB00739). As to the kind of experiment: SEC. (In general: SEC sorts molecules by how far they enter the pores of the column.)

As to PtmU3 (enzyme), the stoichiometry N (commonly the number of molecules, sites or subunits per partner or assembly) came to 2.
